Earlier results on one sequence are cited in paper PMC9741594.

The data set concerns the target T1, Internalin A (on whole Listeria monocytogenes cells) (Listeria monocytogenes (strain not given in the material)) (UniProt P0DJM0).
T1 sequence: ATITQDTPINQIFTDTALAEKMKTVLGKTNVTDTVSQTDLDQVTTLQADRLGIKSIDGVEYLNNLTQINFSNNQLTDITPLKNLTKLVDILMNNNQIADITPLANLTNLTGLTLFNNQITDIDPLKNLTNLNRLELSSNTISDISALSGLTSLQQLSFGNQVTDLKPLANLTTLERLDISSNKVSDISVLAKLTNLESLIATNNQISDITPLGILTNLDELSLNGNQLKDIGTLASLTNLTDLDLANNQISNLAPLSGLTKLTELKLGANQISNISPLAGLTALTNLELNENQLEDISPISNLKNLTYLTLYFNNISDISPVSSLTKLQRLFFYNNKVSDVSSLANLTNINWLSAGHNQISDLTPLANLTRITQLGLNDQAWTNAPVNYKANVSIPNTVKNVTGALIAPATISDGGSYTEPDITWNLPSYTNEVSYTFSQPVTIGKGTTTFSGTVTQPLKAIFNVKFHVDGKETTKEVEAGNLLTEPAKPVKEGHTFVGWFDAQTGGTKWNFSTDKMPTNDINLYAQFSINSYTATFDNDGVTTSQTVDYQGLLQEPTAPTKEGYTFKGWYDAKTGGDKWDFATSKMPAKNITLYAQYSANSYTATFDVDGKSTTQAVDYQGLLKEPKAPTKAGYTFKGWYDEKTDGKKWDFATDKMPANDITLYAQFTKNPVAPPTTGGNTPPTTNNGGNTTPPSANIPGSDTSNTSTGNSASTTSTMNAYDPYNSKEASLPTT
The experiment in a line: not stated (cited). Particulars: printed as KD = 103 CFU/mL, read as 10^3; whole-cell units; 5' amine (immobilized by carbodiimide chemistry on ALG-thiomer/Pt); 5' thiol version also made; PBS, whole L. monocytogenes cells, 15 min capture at pH 7 (extended brush), EIS at pH 3 (collapsed), room temperature; also chicken broth.

As for “ATCCATGGGGCGGAGATGAGGGGGAGGAGGGCGGGTACCCGGTTGAT [A8 anti-Internalin A aptamer]”, the Kd is 1000 CFU/mL.
